Measurements taken from patent US20180339043A1 (JANUX THERAPEUTICS, published 2018).
Primed or numbered codes have the meaning given here. Ends that are not written are not given here. Biotin′ = not defined here

T1: Peptide 15 with C-terminal biotin (Example 13) (not fully specified; cysteine pairing not given here)
T1 peptide: GGPCNQVECHHQFT-{Biotin′}


What was measured:
[1] = molecular target: T2, anti-mouse CTLA-4 antibody (clone 9D9); assay: competition ELISA: 0.3 nM anti-CTLA Ab / 30 min with peptide, then on mouse CTLA-4 (Example 11); competitor mouse CTLA-4
T2 construct: also called 9D9 antibody; anti-CTLA4
Method: (§1) Following this incubation the peptide-antibody complexes were transferred to mouse CTLA-4 coated and blocked ELISA plates and incubated further. Following a brief binding period the plates were washed and target bound antibody was detected by either anti-mouse Fc or anti-mouse kappa chain HRP conjugated antibodies using standard TMB-based chromogenic ELISA procedures. The effects of competition were determined by standard IC50 analysis.

[2] = molecular target: T1, Peptide 15 with C-terminal biotin …; assay: ELISA, biotinylated Peptide 15 on Neutravidin, Fab titrated at pH 7.4 (Example 13)
Method: After washing in PBS-T, mCTLA-4 Fab diluted in either pH 7.4 Binding Buffer (50 mM sodium phosphate+150 mM NaCl+0.5% BSA+0.05% Tween-20, pH 7.4) or pH 6.0 Binding Buffer (50 mM sodium phosphate+150 mM NaCl+0.5% BSA+0.05% Tween-20, pH 6.0) was captured for 1 hour. After capture, wells were washed with either pH 7.4 Binding Buffer or pH 6.0 Binding Buffer, followed by additional 5-minute incubation with the appropriate pH Binding Buffer. Detection was performed with HRP conjugated goat anti-mouse IgG H+L (Southern Biotech.) for 1 hour at 1/2000 dilution in PBS-T+0.5% BSA followed by TMB (3-minute development) with acid stop. […] Data is expressed as mean+SD. All ELISA steps were performed at room temperature.

PD-L1 antibody [3] = molecular target: T3, PD-L1 antibody; assay: dissociation ELISA: PD-L1 antibody dilution series on immobilised biotinylated peptide
T3 construct: also called anti-PD-L1

PD-L1 antibody [4] = molecular target: T3, PD-L1 antibody; assay: dissociation ELISA: PD-L1 antibody dilution series on immobilised biotinylated peptide, incubation at pH 6.0
[5] = molecular target: T2, anti-mouse CTLA-4 antibody (clone 9D9); assay: competition ELISA: 0.3 nM anti-CTLA Ab / 30 min with peptide, then on mouse CTLA-4 (Example 11)
Method: as §1

PD-L1 antibody [6] = molecular target: T3, PD-L1 antibody; assay: dissociation ELISA: PD-L1 antibody dilution series on immobilised biotinylated peptide, incubation at pH 7.2
PD-L1 antibody [7] = molecular target: T3, PD-L1 antibody; assay: dissociation ELISA: PD-L1 antibody dilution series on immobilised biotinylated peptide, incubation at pH 5.4

Row | Binder | binding result [1] | EC50 (read off the curve) [2] | pH 5.4: pH 7.2 EC 50 ratio (PD-L1 antibody [3]) | pH 6.0: pH 7.2 EC 50 ratio (PD-L1 antibody [3]) | EC50 (PD-L1 antibody [4]) | binding result [5] | EC50 (PD-L1 antibody [6]) | EC50 (PD-L1 antibody [7])
1 | GGCPSLHPQWIHVC [Peptide 16] | binds | – | – | – | – | – | – | –
2 | GGCQIHDPHTWHLC [Peptide 19] | binds | – | – | – | – | – | – | –
3 | anti-mouse CTLA-4 (clone 9D9) Fab fragment (Fab, V domains shown, Monovalent Fab fragment of 9D9; also called mCTLA-4 Fab; a-mCTLA-4 Fab) VH: EAKLQESGPVLVKPGASVKMSCKASGYTFTDYYMNWVKQSHGKSLEWIGVINPYNGDTSYNQKFKGKATLTVDKSSSTAYMELNSLTSEDSAVYYCARYYGSWFAYWGQGTLITVST VL: DIVMTQTTLSLPVSLGDQASISCRSSQSIVHSNGNTYLEWYLQKPGQSPKLLIYKVSNRFSGVPDRFSGSGSGTDFTLKISRVEAEDLGVYYCFQGSHVPYTFGGGTKLEIKR | – | ~200 nM | – | – | – | – | – | –
4 | GGHCVDMVDFYQQTCQ (cysteine pairing not given here; also: biotinylated, Chemically synthesized biotinylated peptide; also called 23 (Control)) [Peptide 23] | – | – | 12.9 | 4.3 | 1.3 nM | no binding (tested: 50 uM) | 0.3 nM | 3.9 nM
5 | QLFYPSTYHIID (also: biotinylated, chemically synthesized biotinylated peptide) [Peptide 20] | – | – | 6.7 | 1.7 | 0.21 nM | – | 0.13 nM | 0.84 nM
6 | GGMCHELFYSNLNWCQ (cysteine pairing not given here; also: biotinylated, chemically synthesized biotinylated peptide) [Peptide 22] | – | – | 7.8 | 1.5 | 0.07 nM | – | 0.045 nM | 0.35 nM
7 | GGLCSTFYEPQVDICY (cysteine pairing not given here; also: biotinylated, chemically synthesized biotinylated peptide) [Peptide 29] | – | – | 6.5 | 2.1 | 0.49 nM | – | 0.23 nM | 1.5 nM
8 | GGCHNKSGLFYHYC (cysteine pairing not given here; also: biotinylated, chemically synthesized biotinylated peptide) [Peptide 24] | – | – | 6.6 | 2.8 | 0.56 nM | – | 0.2 nM | 1.3 nM
